{"source": "a protein production outcome set (Wang et al. 2014)", "data": [{"experiment": "label from the status in PepcDB records", "values": [{"sequence": "QDSDSTAAVAVLKRAVELDAESRYQQALVCYQEGIDMLLQVLKGTKESSKRCVLRTKISGYMDRAENIKKYLDQEKEDGK", "protein production": "not failed"}, {"sequence": "QDVPVTQVMTPRPVVFRVDATMTINEFLDKHKDTPFSRPLVYSEQKDNIIGFVHRLELFKMQQSGSGQKQLGAVMRPIQVVLNNTALPKVFDQMMTHRLQLALVVDEYGTVLGLVTLEDIFEHLVGE", "protein production": "not failed"}, {"sequence": "QEGIISLDTEGRVVLMNPKAEEMTGRSQNESCGLPIEDVFILWSPLQDKNQLVAINQCLAEGRHTLLPEGSQLLSSQGERQEIRCSASPIRDRDNLLTGAVVVFQDVTRARHEQRELQYQANHDMLTGLINRRRLEERLNQAISQLGQDEQHILCYVDLDYFKDVNDSAG", "protein production": "failed"}, {"sequence": "QEIRPMPADSAYGVVHISVCNMRDEGKFTSGMSTQALLGMPVKVLQYTGWYEIQTPDDYTGWVHRMVITPMSKEKYDEWNRAEKIVVTSHYGFTYEKPDDDSQTVSDVVAGNRLKWEGSKGHFYKVSYPDGRQAYISRHISQPESKWRASLKQDAESIIKTAYTMIGIPYLWAGTSSKGVDCSGLVRTVLFMHDIIIPRDASQQAYVGERIEIAPDFSNVQRGDLVFFGRKATADRKEGISHVGIYLGNKRFIHALGDVHISSFDPEDECYDEFNTGRLLFATRFLPYINKEKGMNTTDHNLYYLHH", "protein production": "not failed"}, {"sequence": "QELKGKYMKTPTGYLMVLRHGDNVLQNLEQLARDEHIPSASFVGIGFMSEATFGFYDFGRKQFDPKTYRNVEMANMTGSIAWKEGKPSIHAHGTVTDGTFQGAGGHLLGLTVGTGSCEITVTVYPQRLDRFVDPEIQANVLGLPQQ", "protein production": "not failed"}, {"sequence": "QEVSWTQYTQRKFQKSRQPRPSSQYNQRLFGGDMEKFIQSSGQPVPLVVESCIRFINLNGLQHEGIFRVSGAQLRVSEIRDAFERGEDPLVEGCTAHDLDSVAGVLKLYFRSLEPPLFPPDLFGELLASSELEDTAERVEHVSRLLWRLPAPVLVVLRYLFTFLNHLAQYSDENMMDPYNLAVCFGPTLLPVPAGQDPVALQGRVNQLVQTLIVQPDRVFPPLTSLPGPVYE", "protein production": "failed"}, {"sequence": "QGPVGTRIRLALGQDVEAANALMATTGDGVRIIPVLATAIEDGSASSAMLAGLGGIGTNAYHEAASHTFTDRPMNEALTTVSLTLVAADEEDRIVGVLSATAPGTLIDMAMSNGFTAEKAMALSLFVAKIHGLAVAEHARGQGIAAALLKRTWQVYQQLGYMLLYGSYEADRDLAAFYTRSGYTVHAPG", "protein production": "failed"}, {"sequence": "QIDFQVLHDLRQKFPEVPEVVVSRCMLQNNNNLDACCAVLSQESTRYLYGEGDLNFSDDSGI", "protein production": "not failed"}, {"sequence": "QKGRVETRRVVHIMDFQRGKNLRYQLLQLVEPFGVISNHLILNKINEAFIEMATTEDAQAAVDYYTTTPALVFGKPVRVHLSQKYKRIK", "protein production": "not failed"}, {"sequence": "QKRAWITAPVALREGEDLSKKNPIAKIHSDLAEERGLKITYKYTGKGITEPPFGIFVFNKDTGELNVTSILDREETPFFLLTGYALDARGNNVEKPLELRIKVLDINDNEPVFTQD", "protein production": "not failed"}, {"sequence": "QLAEVEVKKFKQMTEAIGPSTIRDLAVAGPEMQVKLLQSLGLKSTLITDGSTPINLFNTAFGLLGMGPEGQPLGRRVASGPSPGEGISPQSAQAPQAPGDNHVVPVLR", "protein production": "failed"}, {"sequence": "QLQDGKGEKVMVEYSSPNTNKPLHLGHLRNNFLGYSISQILKANGFDVIKANLVNDRGIHICKSMIAYQKSGLGETPVSTGMKGDHLVGKYYVAFDKQLKKEVEALVAAGVEEDKAKKEAPILKEAQAMLLKWEQGDKEVYDLWKTMNGWVYDGFNASYKKIGVTFDHFYYESNTYLLGKDIVEEGLAKGVFNKRADGSVWIDLTAEGLDEKLVLRSDGTSVYITQDLGTAELKYKDFGCKRSVYVVGNEQDYHFIVLIHILKKLGKPYANGVYHMSYGMVDLPSGKMKSREGTVVDADDLVDEMIATAKERTLEQGKTDGFSEEQATHLYETLGLGALKYFLLKVDPKKRMMFNPEESIDFQ", "protein production": "failed"}, {"sequence": "QNRGSLSTARSYISMGVGRVYVMKDSPNDIELTMAEGVDVGRYVDYRELAIKIADNRIDVKKNKEIINSRFKLKYKNLSSIYN", "protein production": "failed"}, {"sequence": "QNRIDMAMMRGRCGLWDWNMASGRVYWSRAMYEMLGYIPQDALLSISQITAIINPNDANFFDLAQELMSGKKKHIDINVPMRHADGHYVWMRIRAEVTDEEELHLVGIAFDIS", "protein production": "failed"}, {"sequence": "QNVLDLHGLHVDEALEHLMRVLEKKTEEFKQNGGKPYLSVITGRGNHSQGGVARIKPAVIKYLISHSFRFSEIKPGCLKVMLK", "protein production": "not failed"}, {"sequence": "QPTAQQQLTKPAKITCANCKKPLQKGQTAYQRKGSAHLFCSTTCLSSFS", "protein production": "not failed"}, {"sequence": "QRALVLTAARGRGKSAATGLSIAGLIEKLRERKEKSIRIIVTAPSIASASQVMSFAKLGLEALGEELSVKVSDTGHIKSLRGDYFKLEYVPPDAAIEDEGELLIIDEAAALGINYIDLALRAWKKVALVTTVHGYEGSNKAFLRYLRRLIESKRIRVKWVNMEQPLRYAKGDPIEKWLYDALLLD", "protein production": "failed"}, {"sequence": "QRSYERDFPHHDRICIVKTHGTRQSQEGDKPEELDFSQVSGGVAPAIQEEIPGVELATRTTLYGTSKMILEDNKTYETKTLLAEPAFLDMFGVELIAGVRDSALRDNMTCLISESLARKMGGDVLGKRLRPAESKSDRAITIGGVFEDLPHNSSIQADMLLPITWMPAESLNNWIGNDRYIAYVRLRPGVSPESLDEALLEMQKRHQDMEVFRKAGVELHYSLTPFNRLRLEDPTLVNMLRIQQ", "protein production": "not failed"}, {"sequence": "QYHDHHKDQYQMDAAHVPNKTPLYITDILSLRGKKDSGPARDSIRDSIDRIEFTDFQLHELTGRWLSENMPEGFKSDRFRFLARTITASEEAPVEGSDGEIRIKPNLYILVWEPSFYEELLTRDYFFLFPPEILKQHTLVFQLYSFFRSRMVRRHTDCMLLSELNQKLARNIEWRRFSMDLIRELKRLSDGKGTDDLFVVNLWGYHLTIETMIENDKVMDYQIDIKCDVEEVLRYSRARTTNAGKRNMAPTLPNPLRNEMVTRQQLEALSGIIDGEFEPIQRKTPSPRGNLGRRVKQRKHLVEINADEITITLSKYTSPEALERSITALSAMTGHSYASIKEECSEYIEKLDWLRVGDEPIPYETLSKTVELFNTQNEVKHLTIERLIAGLAVRRKVCRQVFDGHMDEMVFRALDEMAI", "protein production": "failed"}, {"sequence": "RAGHIEVAEVEGMSFPVKLDTGADVSSINAKDIKLFQKDGKDMVSFTYENDLGMQKAFTREVVDVMKITAKKGEKANVRPVVEMHVKLGELEKKIRVNLQDRGRFHYSMILGKNFLKHGALVASETNYIVTKK", "protein production": "not failed"}, {"sequence": "RDITARVQAEENKRRLAEVVEANPDPVLFIQPGGAVTYLNPAARRTLGLGDGQAMPPLAAILSAAVLDSLQREGWDRAEHSGRWNIEARLQPPAGGASVPVSLMLLAHRAASGERFYSLVAHD", "protein production": "failed"}, {"sequence": "RDLDAVLQAIVQRARSLLGTDVAYLTLHDEAEGDTYMRVTEGSVAARFQQLRLGMGEGLGGLVAQTARPYVTPDYFNDERFQHTRVIDGGVRDEGLVAILGVPLMIGPQVIGVLFAADRRARVFEREQIALLGSFAALAAAAIDTANLLTETRSALDRLARANEIIRDRSGVIERASDVHDRLAELVLRGG", "protein production": "failed"}, {"sequence": "RDSLFNDPNAPVLGNPEGDVTVVEFFDYNCPYCRRAMAEVQGLVDADPNVRLVYREWPILGEGSDFAARAALAARQQGKYEAFHWALMGMSGKANETGVLRIAREVGLDTEQLQRDMEAPEVTAHIAQSMALAQKLGFNGTPSFVVEDALVPGFVEQSQLQDAVDRARKAA", "protein production": "not failed"}, {"sequence": "RDSLFNDPNAPVLGNPEGDVTVVEFFDYNCPYCRRAMAEVQGLVDADPNVRLVYREWPILGEGSDFAARAALAARQQGKYEAFHWALMGMSGKANETGVLRIAREVGLDTEQLQRDMEAPEVTAHIAQSMALAQKLGFNGTPSFVVEDALVPGFVEQSQLQDAVDRARKAAAK", "protein production": "not failed"}, {"sequence": "REEDPHEGKIWFHGKISKQEAYNLLMTVGQVCSFLVRPSDNTPGDYSLYFRTNENIQRFKICPTPNNQFMMGGRYYNSIGDIIDHYRKEQIVEGYYLKEPVPMQDQ", "protein production": "not failed"}, {"sequence": "REIADNTYIVLGTMTLNDFNEYFETDLESDNVDTIAGFYLTGVGTIPSQEEKEHFEVESNGKHLELINDKVKDGRVTKLKILVSEVEEKEDEKD", "protein production": "not failed"}, {"sequence": "REKLFLQPVKPTDSMRMEVSSPKLAIGVRGKREVSEADCYRHHILLKLLFAMMFGWTSDRFQKCYESGKIDASLSLEVEITSRFHFVMLTMDTKEPVALSHQFRKAIRNFTKDLDITEEHLDIIKREMFGEFFSSMNSLEFIATQYDAFENGEIIFDLPKILQEITLEDVLDAGHHLIDDGDIVDFTIFP", "protein production": "failed"}, {"sequence": "RGLRRGTLRIGSFGPTSSMRLLPALLARYRQQYPGIEVHIDEGPDEQVLQWLLERRVDIAFAVLPDPRFVCCPLVEDQMVAVLPAGHRLADRPRVTLAELCGEPFALSGAGSAELVMRLFQAARLQPNIRYRCGQLLSTLDTVARG", "protein production": "failed"}, {"sequence": "RGRYRQYNSEILEEAISVVMSGKMSVSKAQSIYGIPHSTLEYKVKERLGTLKNPPKKKMKLMR", "protein production": "not failed"}, {"sequence": "RKKEDKYDFRALGLAIKEARKKQGLTREQVGAMIEIDPRYLTNIENKGQHPSLQVLYDLVSLLNVSVDEFFLPASSQVKSTKRRQLENKIDNF", "protein production": "failed"}, {"sequence": "RLEDLGAASAARLLDAAEERLGRPCGRMERYGRVEREVVAAAEGAELLIVARDGDRARLGPHSLGPASRFVVDHAPCPVLLVWPAPAPGLGTIPPPPHP", "protein production": "not failed"}, {"sequence": "RNGGTIGGADIIAKLLEDKLGLQLNQALLGIDLFVMIVSLTYISLPQMMYALIASFMYGQIVRLVQQGGYSARGIFIVSEQAEKIARFIMDELGRGVTYLTGEGAYSGRRKKVIYVALGRRDIRELKAFLTQVDPNAFITYFDVNEVNSPEFLTIKSKYHKKRK", "protein production": "failed"}, {"sequence": "RPAVFPRMGVLPARVALLGQGQHWGVDFCLNVFRANFAEDREIQSEDVVRDLLRAQDLDADALIAQARQESTKEALRKQVDRARALGIFGAPTFMVDGEMFWGNDRLEDALA", "protein production": "failed"}, {"sequence": "RPDVSRQSQFHTMALVNLSAKMIESCYFLRHFEQQWLLRFHLQAESVGLFSEGLLAFDGDGRICAANQSALNLLGTVRGGVLGKPLECFFACSHDEMFSRATPGG", "protein production": "failed"}, {"sequence": "RQAEEGPPPLPRQISDRSVGHYCSMNLTEHNGPKAQIFLNGKPDQPVWFSTIKQMFGYTKLPEEPKGIRVIYVTDMGNVTDWTNPNADTEWMDAKKAFYVIDSGFIGGMGAEDALPFGNKEQAEKFAKDKGGKVVGFDDMPDTYIFK", "protein production": "not failed"}, {"sequence": "RQKFINDVLHLLYRPLDWNQSIAKVMELLGRFTQADRSYIFENSPDDSYATNTFEWCQEGIAPQIHLLQHFEYSLMPSWKPLIVEKKMICASDISTLPLDLSETLAPQGIKSILAVSIFAQGRLYGYLGLDSCRKKREWSEEEIELLRSISTIIAGAIERRGWERSEKEQ", "protein production": "failed"}, {"sequence": "RRLVTYVLVHGTHSAGAFWTPIARELGLRGHRVVMVDQPRHGAEAFVAESYQRQDLAAMAVEPSPLKGLGLDDYEARVAGIVRRAARNGPVVLVGHSLGGVSVSRVGEAVPHLLHHICYMAAFCPSRVLPTADACTAAPENANAVSPVELTVGDPDRLGVLRLNFRTGVSGELALLKEMICADYPDADFRRILAGMQTDEPVAAYAGRAVGRAGRWGRIPRTYLRFGRDRTIATALQDRVIAEADAATPGNGFRVHDFPEASHVGPLDPTPVADVLDRLA", "protein production": "failed"}, {"sequence": "RSAHLRVRQLPHAPEHPVATLSTVERRAINLTWTKPFDGNSPLIRYILEMSENNAPWTVLLASVDPKATSVTVKGLVPARSYQFRLCAVNDVGKGQFSKDTERVSLPE", "protein production": "not failed"}, {"sequence": "RSRPSPYACHVEAWAADGRQRVRMANPGHATLVLHVYDCLRLAQGPRRYTIEPGRQWEDSWPDAGADLACDLWILGPDGFHRHIRR", "protein production": "failed"}]}]}
